Data set [1] has as its target wild type BDCA-2 extracellular domain (from His44) fused to an N-terminal 3-heptad coiled-coil dimerization domain (human) (UniProt Q8WTT0). The data set is described as follows: SEC; 1 x 30 cm Superdex S75, 10 mM Tris-Cl pH 7.8, 100 mM NaCl, 2.5 mM EDTA, 0.5 mL/min, room temperature; some fragments analysed at serial dilutions.
In data set [2] the target is dectin-2 extracellular fragment beginning with His44 fused to an N-terminal 3-heptad coiled-coil dimerization domain (human) (UniProt Q6EIG7). The data set is described as follows: cross-linking; dectin-2 extracellular domain with dimerization domain in HEPES pH 7.8 buffers, bis(sulfosuccinimidyl) suberate or disuccinimidyl tartrate, serial dilutions, room temperature 30 min, reducing 17.5% SDS-PAGE, Coomassie blue.

For data set [3] the target is unchanged. The data set is described as follows: SEC; 1 x 30 cm Superdex S75, 10 mM Tris-Cl pH 7.8, 100 mM NaCl, 2.5 mM EDTA, 0.5 mL/min, room temperature; some fragments analysed at serial dilutions. (In gel filtration, larger molecules generally elute earlier.)
For data set [4], the target named is BDCA-2 Ser49Cys variant extracellular domain fused to an N-terminal 3-heptad coiled-coil dimerization domain (human) (UniProt Q8WTT0). The data set is described as follows: non-reducing versus reducing SDS-PAGE (disulfide-linked dimer); bacterially expressed extracellular domain fusions eluted from a 5-mL desialylated egg glycopeptide column with EDTA, gels with or without 2-mercaptoethanol, Coomassie blue.

For data set [5] the target is unchanged. The data set is described as follows: SEC; 1 x 30 cm Superdex S75, 10 mM Tris-Cl pH 7.8, 100 mM NaCl, 2.5 mM EDTA, 0.5 mL/min, room temperature; some fragments analysed at serial dilutions.
Data set [6] concerns the molecule itself. The description is as above.
Data set [7] deals with the molecule itself. The data set is described as follows: cross-linking; BDCA-2 purified from HEK cells in HEPES pH 7.8 buffers, pooled fractions reacted with various concentrations of bifunctional reagent for 30 min, reducing SDS-PAGE, western blot. Background: A western blot detects proteins with antibodies after separation by electrophoresis.
Data set [8] deals with the molecule itself. The data set is described as follows: non-reducing versus reducing SDS-PAGE (disulfide-linked dimer); BDCA-2 purified from HEK cells by affinity chromatography (lysis with N-ethylmaleimide), gels with or without 2-mercaptoethanol, western blot with anti-BDCA-2 antiserum.

A word on the stoichiometry N: it is the number of molecules, sites or subunits per partner or assembly. Take “wild type BDCA-2 extracellular domain (from His44) fused to an N-terminal 3-heptad coiled-coil dimerization domain (from UniProt Q8WTT0 44-213)”: the stoichiometry N in data set [1] turned out to be 2.
For the molecule “dectin-2 extracellular fragment beginning with His44 fused to an N-terminal 3-heptad coiled-coil dimerization domain (from UniProt Q6EIG7 44-209)”, the stoichiometry N in data set [2] and in data set [3] was 2 throughout.
As for “BDCA-2 Ser49Cys variant extracellular domain fused to an N-terminal 3-heptad coiled-coil dimerization domain (from UniProt Q8WTT0 44-213)”, the stoichiometry N in data set [4] and in data set [5] was 2 throughout.

B1: dectin-2 extracellular domain starting at Val40 (CRD plus full neck) (domain or fragment, human, UniProt Q6EIG7 40-209, looked up)
chain: VVTYHFTYGETGKRLSELHSYHSSLTCFSEGTKVPAWGCCPASWKSFGSSCYFISSEEKVWSKSEQNCVEMGAHLVVFNTEAEQNFIVQQLNESFSYFLGLSDPQGNNNWQWIDKTPYEKNVRFWHLGEPNHSAEQCASIVFWKPTGWGWNDVICETRRNSICEMNKIYL
notes: human dectin-2 (CLEC-6A) extracellular region starting at Val40; also called full extracellular domain of dectin-2; CRD plus neck fragment starting at residue Val40; source: E. coli BL21(DE3), inclusion bodies, renatured, purified on mannose-Sepharose
With B1, in data set [6], the “stoichiometry N” value came to 2.

B2: blood dendritic cell antigen 2 (BDCA-2), full-length, wild type (receptor, human, UniProt Q8WTT0 1-213, looked up)
chain: MVPEEEPQDREKGLWWFQLKVWSMAVVSILLLSVCFTVSSVVPHNFMYSKTVKRLSKLREYQQYHPSLTCVMEGKDIEDWSCCPTPWTSFQSSCYFISTGMQSWTKSQKNCSVMGADLVVINTREEQDFIIQNLKRNSSYFLGLSDPGGRRHWQWVDQTPYNENVTFWHSGEPNNLDERCAIINFRSSEEWGWNDIHCHVPQKSICKMKKIYI
modifications: N-linked glycans (high mannose and complex)
notes: human BDCA-2, full-length protein expressed in HEK cells; Co-expressed with human FcRγ; no tag is mentioned; also called wild-type BDCA-2; source: HEK 293 cells, stably co-transfected with FcRγ; in lysate and purified from lysate on a desialylated egg-glycopeptide column
For the molecule B2, in data set [7], the “stoichiometry N” value turned out to be 2.

B3: BDCA-2 Ser49Cys variant, full-length (receptor, human, UniProt Q8WTT0 1-213, looked up)
chain: MVPEEEPQDREKGLWWFQLKVWSMAVVSILLLSVCFTVSSVVPHNFMYCKTVKRLSKLREYQQYHPSLTCVMEGKDIEDWSCCPTPWTSFQSSCYFISTGMQSWTKSQKNCSVMGADLVVINTREEQDFIIQNLKRNSSYFLGLSDPGGRRHWQWVDQTPYNENVTFWHSGEPNNLDERCAIINFRSSEEWGWNDIHCHVPQKSICKMKKIYI
modifications: interchain disulfide bond at Cys49; N-linked glycans (high mannose and complex)
notes: human BDCA-2, full-length construct with the naturally occurring change Ser49Cys (SNP found in a single individual); Co-expressed with human FcRγ; also called Ser49Cys form of BDCA-2; source: HEK 293 cells, stably co-transfected with FcRγ; in lysate and purified from lysate on a desialylated egg-glycopeptide column
Take B3: the “stoichiometry N” value in data set [8] was 2.

The record behind these values is paper PMC11632364, “Interactions that define the arrangement of sugar-binding sites in BDCA-2 and dectin-2 dimers” (Glycobiology, 2024).
